The record followed here is patent EP3917571B1.

For this test, the target named is ERp57 (PDIA3), human, endogenous in MDA-MB-231 ER-G2 cells (human) (UniProt P30101). The experiment in a line: proximity ligation assay on live, intact cells (probes ab10286 and ab13506).
Sequence of UniProt P30101 (P30101 25-505): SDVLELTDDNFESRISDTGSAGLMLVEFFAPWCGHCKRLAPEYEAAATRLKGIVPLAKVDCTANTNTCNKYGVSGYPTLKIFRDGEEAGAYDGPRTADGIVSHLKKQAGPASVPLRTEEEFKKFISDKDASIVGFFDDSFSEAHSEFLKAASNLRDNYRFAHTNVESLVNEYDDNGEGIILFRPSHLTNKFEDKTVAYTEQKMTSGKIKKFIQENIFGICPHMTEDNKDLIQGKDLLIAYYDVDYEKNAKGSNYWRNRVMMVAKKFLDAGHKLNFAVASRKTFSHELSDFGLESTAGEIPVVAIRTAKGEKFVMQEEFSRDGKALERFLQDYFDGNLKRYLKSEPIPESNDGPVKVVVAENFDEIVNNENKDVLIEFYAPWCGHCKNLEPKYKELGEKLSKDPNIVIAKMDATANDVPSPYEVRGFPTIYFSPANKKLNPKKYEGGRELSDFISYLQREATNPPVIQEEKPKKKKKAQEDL

B1: Calnexin (Cnx), human, endogenous in MDA-MB-231 ER-G2 and Huh7 cells (protein, UniProt P27824 21-592, looked up)
chain: HDGHDDDVIDIEDDLDDVIEEVEDSKPDTTAPPSSPKVTYKAPVPTGEVYFADSFDRGTLSGWILSKAKKDDTDDEIAKYDGKWEVEEMKESKLPGDKGLVLMSRAKHHAISAKLNKPFLFDTKPLIVQYEVNFQNGIECGGAYVKLLSKTPELNLDQFHDKTPYTIMFGPDKCGEDYKLHFIFRHKNPKTGIYEEKHAKRPDADLKTYFTDKKTHLYTLILNPDNSFEILVDQSVVNSGNLLNDMTPPVNPSREIEDPEDRKPEDWDERPKIPDPEAVKPDDWDEDAPAKIPDEEATKPEGWLDDEPEYVPDPDAEKPEDWDEDMDGEWEAPQIANPRCESAPGCGVWQRPVIDNPNYKGKWKPPMIDNPSYQGIWKPRKIPNPDFFEDLEPFRMTPFSAIGLELWSMTSDIFFDNFIICADRRIVDDWANDGWGLKKAADGAAEPGVVGQMIEAAEERPWLWVVYILTVALPVFLVILFCCSGKKQTSGMEYKKTDAPQPDVKEEEEEKEEEKDKGDEEEEGEEKLEEKQKSDAEEDGGTVSQEEEDRKPKAEEDEILNRSPRNRKPRRE
modifications: O-GalNAc (Tn) glycosylation mapped at T50, T59, T66, T79, S81 and S86 after GALA activation
Turning to B1, the proximity ligation assay signal, fold increase in MDA ER-G2 over wild-type MDA cells stood at 10 fold.
